Measurements as given in publication PMC9107513.

What was measured:
[1] = western blot, endogenous RYR1, C2C12 myotubes ± MG-132; conditions: glycan lost; control: vector / control siRNA
[2] = MS of immunoprecipitated endogenous RYR1, C2C12; conditions: glycan lost; control: control siRNA
[3] = IP of tagged RYR1, blot of tagged ubiquitin, MG-132; conditions: glycan lost; control: vector / control siRNA
[4] = IP of exogenous RYR1, phospho-Ser/Thr blot; conditions: glycan lost; control: control siRNA
[5] = western blot, exogenous wild-type RYR1 in C2C12; conditions: glycan lost; control: vector / control siRNA

## RYR1: siRNA-mediated knockdown of OGT
[1]
  expression_or_secretion: increases

## RYR1: OGT knockdown
[2]
  other: phosphorylation at T4338: increases

## human RYR1: OGT knockdown
[3]
  other: ubiquitination: decreases
[4]
  other: Ser/Thr phosphorylation: increases
[5]
  expression_or_secretion: increases
